The text below walks through data of patent US20170037151A1.

One assay concerns the target Total SYK (human) (UniProt P43405). Kind of assay: IHC pathology score, share of the 15 human DLBCL biopsies scored positive.
In the next assay the target is SYK pY323 (human) (UniProt P43405). The description is as above.
The target in assay [1] is endogenous pSYK (activated SYK, pSYK Y525/526) in stimulated human lymphoma/leukemia cells, xenografts and biopsies (human) (UniProt P43405). Put plainly: IHC, PHTX 95L xenograft untreated, Aperio positive pixel count.
Assay [2] shares this target. Put plainly: IHC, PHTX95L xenograft, SYK inhibitor-treated mice, Aperio positive pixel count.
Assay [3] has the same target. Put plainly: IHC pathology score, share of the 15 human DLBCL biopsies scored positive.

In the case of “Epitomics 1688-1 anti-hSYK (total SYK) antibody”, the % Positive with Total SYK (human) came to 100%.
The substance Epitomics 2173 anti-SYK pY323 antibody returned a % Positive with SYK pY323 (human) of 40%.
For “Epitomics 2175-1 anti-pSYK Y525/526 antibody”, the figures for the Percent Positive Pixel per total Pixel in assay [1] and in assay [2] were 8.21% and 0.56%, respectively. In assay [3], the % Positive was 40%.
